This note sets out measurements from patent publication US20130130273A1 (KOREA BASIC SCIENCE INSTITUTE, published 2013).

This assay deals with TMD-mRFP-RelA (UniProt Q04206 1-551). Description: co-translocation of a three-protein complex (RelA, IkB, p50) after 1 µM PMA, confocal microscopy, HEK293 cells.
Sequence of TMD-mRFP-RelA (Q04206 other isoform, or with tags, fused parts or gaps limits assumed): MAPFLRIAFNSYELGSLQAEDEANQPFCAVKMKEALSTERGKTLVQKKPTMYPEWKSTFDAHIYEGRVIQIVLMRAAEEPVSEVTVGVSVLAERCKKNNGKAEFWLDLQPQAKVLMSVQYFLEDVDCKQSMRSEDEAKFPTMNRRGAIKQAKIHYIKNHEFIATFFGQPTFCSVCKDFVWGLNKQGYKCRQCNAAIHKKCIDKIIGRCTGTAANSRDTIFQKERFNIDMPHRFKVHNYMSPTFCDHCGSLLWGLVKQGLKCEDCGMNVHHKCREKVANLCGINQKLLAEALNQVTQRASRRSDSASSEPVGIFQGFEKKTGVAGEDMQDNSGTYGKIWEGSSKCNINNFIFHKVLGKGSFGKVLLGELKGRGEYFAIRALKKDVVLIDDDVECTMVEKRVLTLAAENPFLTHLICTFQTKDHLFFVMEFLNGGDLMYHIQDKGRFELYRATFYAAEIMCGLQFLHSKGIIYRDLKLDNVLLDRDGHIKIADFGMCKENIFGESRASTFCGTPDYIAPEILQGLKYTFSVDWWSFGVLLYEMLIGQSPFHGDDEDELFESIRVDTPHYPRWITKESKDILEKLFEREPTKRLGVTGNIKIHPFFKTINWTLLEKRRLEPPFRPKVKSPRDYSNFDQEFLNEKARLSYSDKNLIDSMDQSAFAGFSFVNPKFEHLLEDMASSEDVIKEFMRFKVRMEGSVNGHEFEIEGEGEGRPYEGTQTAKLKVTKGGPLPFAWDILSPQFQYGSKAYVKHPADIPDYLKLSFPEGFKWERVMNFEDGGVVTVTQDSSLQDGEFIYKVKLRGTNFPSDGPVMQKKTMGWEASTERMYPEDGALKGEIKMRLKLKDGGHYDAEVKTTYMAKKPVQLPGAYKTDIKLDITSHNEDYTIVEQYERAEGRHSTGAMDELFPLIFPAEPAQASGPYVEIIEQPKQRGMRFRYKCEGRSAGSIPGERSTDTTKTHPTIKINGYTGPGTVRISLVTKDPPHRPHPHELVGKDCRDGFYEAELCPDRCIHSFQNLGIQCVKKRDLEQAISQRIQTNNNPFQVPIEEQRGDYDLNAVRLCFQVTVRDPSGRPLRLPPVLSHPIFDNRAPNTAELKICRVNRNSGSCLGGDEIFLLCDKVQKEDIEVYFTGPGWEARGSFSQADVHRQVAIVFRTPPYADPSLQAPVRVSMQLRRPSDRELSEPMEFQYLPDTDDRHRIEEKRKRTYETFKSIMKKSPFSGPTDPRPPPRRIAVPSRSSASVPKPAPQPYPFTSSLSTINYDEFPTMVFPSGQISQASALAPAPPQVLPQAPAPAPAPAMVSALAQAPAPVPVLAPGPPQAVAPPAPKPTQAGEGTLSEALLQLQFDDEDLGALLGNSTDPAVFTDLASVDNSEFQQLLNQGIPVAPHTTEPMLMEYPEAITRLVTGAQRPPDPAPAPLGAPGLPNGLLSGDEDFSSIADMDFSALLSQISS

B1: HcR-p50 (other)
chain: MVSGLLKESMRIKMYMEGTVNGHYFKCEGEGDGNPFAGTQSMRIHVTEGAPLPFAFDILAPCCEYGSRTFVHHTAEIPDFFKQSFPEGFTWERTTTYEDGGILTAHQDTSLEGNCLIYKVKVHGTNFPADGPVMKNKSGGWEPSTEVVYPENGVLCGRNVMALKVGDRHLICHHYTSYRSKKAVRALTMPGFHFTDIRLQMLRKKKDEYFELYEASVARYSDLPEKANMAEDDPYLGRPEQMFHLDPSLTHTIFNPEVFQPQMALPTDGPYLQILEQPKQRGFRFRYVCEGPSHGGLPGASSEKNKKSYPQVKICNYVGPAKVIVQLVTNGKNIHLHAHSLVGKHCEDGICTVTAGPKDMVVGFANLGILHVTKKKVFETLEARMTEACIRGYNPGLLVHPDLAYLQAEGGGDRQLGDREKELIRQAALQQTKEMDLSVVRLMFTAFLPDSTGSFTRRLEPVVSDAIYDSKAPNASNLKIVRMDRTAGCVTGGEEIYLLCDKVQKDDIQIRFYEEEENGGVWEGFGDFSPTDVHRQFAIVFKTPKYKDINITKPASVFVQLRRKSDLETSEPKPFLYYPEIKDKEEVQRKRQKLMPNFSDSFGGGSGAGAGGGGMFGSGGGGGGTGSTGPGYSFPHYGFPTYGGITFHPGTTKSNAGMKHG
notes: also called second construct 2
In the case of B1, the binding result was “binds”.
